Experimental data taken from PMC4491177, “Co-translational capturing of nascent ribosomal proteins by their dedicated chaperones” (Nature Communications, 2015).
Ends that are not written are not given here.

Experiments:
[1] = biological target: CtSqt1.52C (WD-repeat β-propeller domain of ctSqt1); experiment: isothermal titration calorimetry (ITC), C. thermophilum; assay type: binding, Chaetomium thermophilum
Experimental: ITC experiments were performed on a MicroCal ITC 2000 instrument (GE Healthcare). The following peptides, corresponding to the N-terminal 19 (without N-terminal methionine) or 20 amino acids of S. cerevisiae and C. thermophilum Rpl10, were synthesized with a free acid group at the C terminus (peptides&elephants): Rpl10(1–20) NH2-[…]-COOH, Rpl10(2–20) NH2-[…]-COOH, ctRpl10(1–20) NH2-[…]-COOH and ctRpl10(2–20) NH2-[…]-COOH. Peptides (1 mg each) were dissolved in the appropriate volume of gel-filtration buffer (20 mM HEPES–NaOH (pH 7.5), 200 mM NaCl, 20 mM KCl and 20 mM MgCl2), which was used for the purification of ScSqt1.53C and ctSqt1.52C, to obtain 1 mM stock solutions. Concentrations of proteins were determined by measuring the A280 using a NanoDrop Lite spectrophotometer (Thermo Scientific). For determination of the C. thermophilum Sqt1/L10-N binding, 200 μl of ctSqt1.52C (10 μM) was added to the sample cell and 2 μl of 100 μM solutions of the peptides was titrated in at 25 °C. For determination of the S. cerevisiae Sqt1/L10-N binding, 200 μl of ScSqt1.53C (100 μM) was added to the sample cell and 2 μl of 1 mM solutions of the peptides were titrated in at 15 °C. ITC data were processed using the Origin ITC Software (OriginLab) and thermodynamic parameters were obtained by fitting the data to a One Set of Sites binding model.

[2] = system: Rrb1; experiment: Y2H interaction with Rrb1; assay type: binding, S. cerevisiae; conditions: reporter strain PJ69-4A, HIS3 and ADE2 reporters, 3 days at 30 °C
Experimental: (§1) For Y2H interaction assays, plasmids expressing bait proteins, fused to the Gal4 DNA-binding domain (G4BD), and prey proteins, fused to the Gal4 activation domain (G4AD), were co-transformed into reporter strain PJ69-4A. Y2H interactions were documented by spotting representative transformants in 10-fold serial dilution steps onto SC-Trp-Leu, SC-Trp-Leu-His (HIS3 reporter) and SC-Trp-Leu-Ade (ADE2 reporter) plates, which were incubated for 3 days at 30 °C. Growth on SC-Trp-Leu-His plates is indicative of a weak/moderate interaction, whereas only relatively strong interactions permit growth on SC-Trp-Leu-Ade plates.

[3] = biological target: T1, Rpl10 (endogenous) (S. cerevisiae (endogenous in yeast …, UniProt P41805 1-221)); experiment: cell-based or functional assay
T1 sequence (looked up): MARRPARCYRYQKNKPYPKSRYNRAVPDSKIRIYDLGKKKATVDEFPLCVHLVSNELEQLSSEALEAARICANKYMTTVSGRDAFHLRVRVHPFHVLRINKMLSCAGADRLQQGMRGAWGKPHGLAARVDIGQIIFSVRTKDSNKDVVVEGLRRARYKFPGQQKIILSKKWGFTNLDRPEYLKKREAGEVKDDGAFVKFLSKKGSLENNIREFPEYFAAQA

[4] = system: Rpl10; experiment: Y2H interaction with Rpl10; assay type: binding, S. cerevisiae; conditions: Sqt1 variants; PJ69-4A, HIS3 and ADE2 reporters, 3 days at 30 °C
Experimental: as §1

[5] = biological target: T2, Rps3 (endogenous, nascent) (S. cerevisiae (endogenous in yeast cells)) (UniProt P05750)
T2 sequence: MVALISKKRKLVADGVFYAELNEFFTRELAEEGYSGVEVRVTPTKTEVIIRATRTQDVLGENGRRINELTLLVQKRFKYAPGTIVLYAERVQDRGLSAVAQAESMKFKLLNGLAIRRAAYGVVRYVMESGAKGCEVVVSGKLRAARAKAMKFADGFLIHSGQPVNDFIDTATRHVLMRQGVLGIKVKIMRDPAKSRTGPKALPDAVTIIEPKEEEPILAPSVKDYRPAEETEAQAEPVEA

[6] = biological target: Rpl3 (endogenous) (S. cerevisiae (endogenous in yeast …, UniProt P14126 1-387)); experiment: cell-based or functional assay
Chain of Rpl3 (endogenous) (S. cerevisiae (P14126 whole entry): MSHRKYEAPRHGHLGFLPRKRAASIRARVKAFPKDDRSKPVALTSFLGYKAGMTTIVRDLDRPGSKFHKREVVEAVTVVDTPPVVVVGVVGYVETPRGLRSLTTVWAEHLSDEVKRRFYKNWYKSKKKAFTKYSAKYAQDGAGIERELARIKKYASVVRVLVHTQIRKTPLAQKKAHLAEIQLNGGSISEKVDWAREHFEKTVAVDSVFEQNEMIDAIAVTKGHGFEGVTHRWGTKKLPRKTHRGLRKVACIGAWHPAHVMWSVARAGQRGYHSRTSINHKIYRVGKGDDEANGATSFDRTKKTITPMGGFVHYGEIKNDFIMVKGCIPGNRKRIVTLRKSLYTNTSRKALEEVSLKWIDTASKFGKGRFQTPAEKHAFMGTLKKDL

[7] = biological target: T3, Rpl5 (endogenous, nascent) (S. cerevisiae (endogenous in yeast cells)) (UniProt P26321)
T3 sequence: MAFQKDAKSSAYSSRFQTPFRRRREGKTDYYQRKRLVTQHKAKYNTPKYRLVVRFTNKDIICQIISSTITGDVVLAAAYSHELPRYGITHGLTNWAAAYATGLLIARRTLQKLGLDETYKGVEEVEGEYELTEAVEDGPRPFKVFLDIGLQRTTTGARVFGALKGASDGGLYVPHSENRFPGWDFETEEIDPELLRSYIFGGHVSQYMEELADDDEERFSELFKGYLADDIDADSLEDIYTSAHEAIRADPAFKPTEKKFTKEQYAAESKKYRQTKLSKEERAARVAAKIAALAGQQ

[8] = soluble expression in E. coli; assay type: physicochemical; conditions: data not shown for Rpl10

H-MARRPARCYRYCKNKPYPKS-OH (cysteine pairing not given here) [CtL10-N(1-20), N-terminal 20 amino acids of C. thermophilum Rpl10]
Kd ([1]; 10 μM ctSqt1.52C in cell, 2 μl of 100 μM peptide titrated, 25 °C, 20 mM HEPES–NaOH (pH 7.5), 200 mM NaCl, 20 mM KCl, 20 mM MgCl2, One Set of Sites, read-out: dissociation constant (Kd)): ~442 nM
effect of Met1 on the interaction ([1]; ctSqt1): did not abolish the interaction completely

amino acids 1–15 of Rpl3: amino acids 1–15 of Rpl3, Y2H bait fused to G4BD (MSHRKYEAPRHGHLG; also: fused to Gal4 DNA-binding domain; UniProt P14126 1-15, looked up, fragment)
Y2H interaction with Rrb1 [2]: sufficient to yield a robust Y2H interaction with full-length Rrb1

B1: Sqt1-TAP (natural protein, S. cerevisiae, UniProt P35184 1-431, looked up)
chain: MEPQEEFITTEEVEQEIVPTVEVEQDVPVDIEGENDDDDEMMNDDEEALEVDMSNNSLTYFDKHTDSVFAIGHHPNLPLVCTGGGDNLAHLWTSHSQPPKFAGTLTGYGESVISCSFTSEGGFLVTADMSGKVLVHMGQKGGAQWKLASQMQEVEEIVWLKTHPTIARTFAFGATDGSVWCYQINEQDGSLEQLMSGFVHQQDCSMGEFINTDKGENTLELVTCSLDSTIVAWNCFTGQQLFKITQAEIKGLEAPWISLSLAPETLTKGNSGVVACGSNNGLLAVINCNNGGAILHLSTVIELKPEQDELDASIESISWSSKFSLMAIGLVCGEILLYDTSAWRVRHKFVLEDSVTKLMFDNDDLFASCINGKVYQFNARTGQEKFVCVGHNMGVLDFILLHPVANTGTEQKRKVITAGDEGVSLVFEVPN
enrichment of the RPL10 mRNA in the Sqt1-TAP purification (IgG-sepharose pull-down from cycloheximide-treated cells, TEV eluate, real-time qRT–PCR) [3]: ~25 fold

B2: Sqt1 Glu315 to lysine: Sqt1 variant, Glu315 mutated to lysine (protein, UniProt P35184 1-431, looked up, variant E315K)
Ribosome assembly protein SQT1: MEPQEEFITTEEVEQEIVPTVEVEQDVPVDIEGENDDDDEMMNDDEEALEVDMSNNSLTYFDKHTDSVFAIGHHPNLPLVCTGGGDNLAHLWTSHSQPPKFAGTLTGYGESVISCSFTSEGGFLVTADMSGKVLVHMGQKGGAQWKLASQMQEVEEIVWLKTHPTIARTFAFGATDGSVWCYQINEQDGSLEQLMSGFVHQQDCSMGEFINTDKGENTLELVTCSLDSTIVAWNCFTGQQLFKITQAEIKGLEAPWISLSLAPETLTKGNSGVVACGSNNGLLAVINCNNGGAILHLSTVIELKPEQDELDASIKSISWSSKFSLMAIGLVCGEILLYDTSAWRVRHKFVLEDSVTKLMFDNDDLFASCINGKVYQFNARTGQEKFVCVGHNMGVLDFILLHPVANTGTEQKRKVITAGDEGVSLVFEVPN
Y2H interaction with Rpl10 [4]: abolished the interaction between Sqt1 and Rpl10

B3: Yar1-TAP (natural protein)
chain: MGLHSEPLDQEDQDTIILDARAGDLDSLKDIFTTLVSPELLSTCKESESDSTALHMAAANGHIETVRYILETVSRANSAEDLKAFVNEVNKTGNTALHWASLNGKLDVVKLLCDEYEADPFIRNKFGHDAIFEAENSGKEEVETYFLKKYDVEPEDDEEDTQTEGKNSVQITKGTEIEQVTKEATEALREETEKLNINKD
enrichment of the RPS3 mRNA in the Yar1-TAP purification (IgG-sepharose pull-down from cycloheximide-treated cells, TEV eluate, real-time qRT–PCR) [5]: 100 fold

B4: NTAP-Rrb1 (natural protein, S. cerevisiae, UniProt Q04225 1-511, looked up)
chain: MSKRSIEVNEEQDRVVSAKTESHSVPAIPASEEQDAPKNDLEEQLSDEFDSDGEIIEIDGDDEINDEDDLRKKQEEAETLVQKDQSEGNKEKIQELYLPHMSRPLGPDEVLEADPTVYEMLHNVNMPWPCLTLDVIPDTLGSERRNYPQSILLTTATQSSRKKENELMVLALSNLAKTLLKDDNEGEDDEEDDEDDVDPVIENENIPLRDTTNRLKVSPFAISNQEVLTATMSENGDVYIYNLAPQSKAFSTPGYQIPKSAKRPIHTVKNHGNVEGYGLDWSPLIKTGALLSGDCSGQIYFTQRHTSRWVTDKQPFTVSNNKSIEDIQWSRTESTVFATAGCDGYIRIWDTRSKKHKPAISVKASNTDVNVISWSDKIGYLLASGDDNGTWGVWDLRQFTPSNADAVQPVAQYDFHKGAITSIAFNPLDESIVAVGSEDNTVTLWDLSVEADDEEIKQQAAETKELQEIPPQLLFVHWQKEVKDVKWHKQIPGCLVSTGTDGLNVWKTISV
enrichment of the RPL3 mRNA in the NTAP-Rrb1 purification (IgG-sepharose pull-down from cycloheximide-treated cells, TEV eluate, real-time qRT–PCR) [6]: ~100 fold

B5: Sqt1 (53C construct): WD-repeat β-propeller domain of Sqt1; deletion of amino acids 1–52 (protein)
chain: MSNNSLTYFDKHTDSVFAIGHHPNLPLVCTGGGDNLAHLWTSHSQPPKFAGTLTGYGESVISCSFTSEGGFLVTADMSGKVLVHMGQKGGAQWKLASQMQEVEEIVWLKTHPTIARTFAFGATDGSVWCYQINEQDGSLEQLMSGFVHQQDCSMGEFINTDKGENTLELVTCSLDSTIVAWNCFTGQQLFKITQAEIKGLEAPWISLSLAPETLTKGNSGVVACGSNNGLLAVINCNNGGAILHLSTVIELKPEQDELDASIESISWSSKFSLMAIGLVCGEILLYDTSAWRVRHKFVLEDSVTKLMFDNDDLFASCINGKVYQFNARTGQEKFVCVGHNMGVLDFILLHPVANTGTEQKRKVITAGDEGVSLVFEVPN
Y2H interaction with Rpl10 [4]: sufficient to mediate the interaction both with full-length or the N-terminal residues

B6: Syo1-FTpA (natural protein)
chain: MGRSKKRSRASSSRLNPLRKAGSNDNNKDTNVVNKKLQPLLQNLSSVVPNDRSIALSSISVLCEDAHMRQLLLKEKLVPIILNKLLNDSNSDIVVESFGLLRNLSLEEGYDVSIYLWRSDIWTSITSNFGRIVESLSALQAAEQQPQLKPAGKSKIESKRLLFDFADNLLSLVVALSNGSDDILNEILTESKINEIFQVISQLLKYGVEKLPINLFNTTLDLIYDLSSESFEFIDHVSNNELLSQFLNGLSPALHPQANELTKVLIEGIHCQFLDMKITYDQCNKMIHSVCHSINNIDPVQLVNDINNPVEIGPATSKDESSKVITKIKDYNAKRNESMIKLQSIEIAIDLITAIIEIVASKYESPESQEVAIPEELINTLTNFLPHVFMILKDTFTSRILIGWNNLIWLFVSLSLTELSGELLTTLWSYVTQLDSQDDLSIKIGRMGCIWALLKLIFPDGAFESENRALINVQMLNNSGFARGIIEEFQNNNDLELQQKCINVLSTYAMIQGQIDANKEIGQFFIQTLTQLNVRPEILIEMTNSLFQIYGDASYDYNEPIFVRGGFLSILKDQVVPNLRQQFKMVDKNKNPELKERCHDCFTTLDSFIHYKMNENSTNQ
enrichment of the RPL5 mRNA in the Syo1-FTpA purification (IgG-sepharose pull-down from cycloheximide-treated cells, TEV eluate, real-time qRT–PCR) [7]: 100 fold

B7: full-length Rpl10: full-length ribosomal protein Rpl10 (protein)
chain: MARRPARCYRYQKNKPYPKSRYNRAVPDSKIRIYDLGKKKATVDEFPLCVHLVSNELEQLSSEALEAARICANKYMTTVSGRDAFHLRVRVHPFHVLRINKMLSCAGADRLQQGMRGAWGKPHGLAARVDIGQIIFSVRTKDSNKDVVVEGLRRARYKFPGQQKIILSKKWGFTNLDRPEYLKKREAGEVKDDGAFVKFLSKKGSLENNIREFPEYFAAQA
modifications: left off: Gal4 DNA-binding domain or Gal4 activation domain (which of the two is not stated), end not stated, kept
soluble expression in E. coli [8]: expressed as an insoluble protein
